Bridge positions count the residues as written; N and C are the ends. Square brackets hold non-standard residues; d marks the D form. Peptide text beside a SMILES is read from it. * marks the point of attachment. ξ: configuration not given here. FITC = O=C1OC2(c3ccc(O)cc3Oc3cc(O)ccc32)c2ccc(NC(=S)*)cc21; ξThr(3R) = C[C@@H](O)C(N)C(=O)O; GABA = NCCCC(=O)O
Tests used:
[1] = tested on: EGFR+ve cells (H1299, DKMG) versus K562 cells; assay: Flow cytometry internalization of peptide-FITC conjugates; format: cell-based; settings: 2.5 μM FITC-labeled peptide
Excerpt: Analysis was done with FACS cell analyzer.

[2] = tested on: H1299, H1975 and DKMG cells; assay: Phage display biopanning with NGS, selection of EGFR-specific peptides; format: cell-based; settings: 3 rounds of biopanning, K562-derived sequences excluded
Protocol: A heptapeptide phage display library (Ph.D.-C7C Phage Display Library Kit, New England Biolabs, USA) was used for the in vitro biopanning experiments. All cell lines were individually incubated with phages from the stock library. […] Adherent cells (H1299, […] and DKMG) were plated at a density of 10^5 cells/ml in a 6-well plate. When the culture reached 80% confluence, the first well was incubated with phage library (10^11 pfu/10 μl) for 1 h at 37° C. with gentle stirring. The medium containing unbound phage was collected and transferred to the second, similar well and incubated again. The procedure was repeated with the third well. Cells in the third wells were washed four times with 0.5% Tween-20 in PBS. Then, 0.5 ml of elution buffer (0.2 M glycine-HCl, pH 2.2) was added and incubated for 10 min at 4° C.; the pH was neutralized by addition of 75 μl of 1 M Tris-HCl buffer, pH 9.0. The supernatant containing cell surface binding phage was collected. The cells were then lysed by incubation for 1 h at 4° C. with 2 ml of 30 mM Tris-HCl and 1 mM EDTA, pH 8.0. The medium was collected and centrifuged at 1,500 rpm for 5 min and the supernatant containing cell-internalized phage was transferred to a new tube. The internalized and surface-bound phages were amplified according to the manufacturer's instructions. An aliquot of the phages was retained for sequencing (see below) and the remainder was subjected to two additional rounds of biopanning. […]
Finally, two groups of peptides were constructed; the first included sequences that were present in all three EGFR+ve cell lines and included about 416 sequences; the second was divided into three subgroups, one for each cell line, wherein the subgroup for H1299 included some 1666 sequences, the subgroup for H1975 included some 10437 sequences, the subgroup for DKMG included some 981 sequences. From this list, top eleven S—S bridged cyclic peptides sequences were selected by their count in the sequencing data (the highest number of reads). […]

H1299 cells = assay: XTT cytotoxicity assay on H1299 cells; format: cell-based; settings: for IC50: H1299
Protocol: (§1) Cell growth in the presence of PDCs was measured by a commercial XTT assay kit (Cell Proliferation Kit, XTT based; Biological Industries, Israel). The cells (10^4 cells/well) were seeded in 96 well plates and incubated overnight in complete growth medium. The cells were washed and then cultured in 100 μl of new medium containing various concentrations of drug or peptides, for 24 h, 48 h, and 72 h. The XTT solution was added to each well and the plate was further incubated 2-3 h at 37° C. The optical density in the wells was measured at both 480 nm and 680 nm using a TECAN Infinite M200 ELISA reader. All the tests were done in triplicates, and each experiment was repeated three times.
(§2) The cytotoxicity of the Peptide-Drug conjugates (PDCs) was tested in a range of concentrations (0.5-50 μM) against H1299 and DKMG cells using two protocols. In the first protocol, cells were pre-incubated with P6, P9, P6-CPT, and P9-CPT for 6 hours, the medium was removed, and a fresh, drug-free complete medium was added for additional 24 h (designated as 6h24h) or 48 h (6h48h). In the second protocol, cells were exposed continuously to PDCs for 24 h, 48 h, and 72 hours.

DKMG cells = assay: XTT cytotoxicity assay on DKMG cells; format: cell-based
Protocol: as §1, §2

[3] = molecular target: T1, epidermal growth factor receptor (EGFR), wild type (human, UniProt P00533 25-1210); assay: flow cytometry, 2.5 uM FITC-peptide on H1299 cells (EGFR overexpressing)
T1 construct: whole, on cells; The target is inferred from tumour cell lines that overexpress EGFR, compared with EGFR-negative cells; No purified receptor was used; also called EGFRWT; EGFR WT

[4] = molecular target: T2, EGFR variant III (EGFRvIII), on DKMG glioblastoma cells (human, UniProt P00533 25-1210); assay: flow cytometry, 2.5 uM FITC-peptide on DKMG cells (EGFR WT and EGFRvIII)
T2 construct: whole, on cells; DKMG cells express both wild type EGFR (92% of cells) and EGFRvIII (82%); All results on DKMG cells are written against this molecule; also called EGFR mutant; EGFRVIII DKMG

Molecule | binding result [3] | binding result [4] | further results
CC(C)[C@@H]1NC(=O)[C@@H](NC(=O)CCCNC(=S)Nc2ccc3c(c2)C(=O)OC32c3ccc(O)cc3Oc3cc(O)ccc32)CSSC[C@@H](C(N)=O)NC(=O)[C@H](CCCNC(=N)N)NC(=O)CNC(=O)[C@H](Cc2ccccc2)NC(=O)[C@H](CCCNC(=N)N)NC(=O)[C@H](Cc2c[nH]c3ccccc23)NC(=O)[C@H](CCCNC(=N)N)NC1=O [FITC-labeled P3] ({FITC-GABA}-CVRWRFGRC-NH2; disulfide 1-9) | – | – | internalization (flow cytometry) [1]: internalized only into to EGFR+ve cells
CC(C)C[C@@H]1NC(=O)[C@H](Cc2c[nH]c3ccccc23)NC(=O)[C@H](CC(N)=O)NC(=O)[C@@H](N)CSSC[C@@H](C(N)=O)NC(=O)[C@H](CCC(=O)O)NC(=O)C([C@@H](C)O)NC(=O)[C@H](CCCNC(=N)N)NC(=O)[C@H](CO)NC1=O (stereo partly drawn) [Peptide P10] (H-CNWLSR[ξThr(3R)]EC-NH2; disulfide 1-9) | – | – | Cell line (peptide specificity per cell line; source of the cells from which the peptide was identified) [2]: DKMG
CC[C@H](C)[C@@H]1NC(=O)[C@H](Cc2ccc(O)cc2)NC(=O)[C@H](CO)NC(=O)CNC(=O)[C@@H]2CCCN2C(=O)[C@H](C(C)C)NC(=O)[C@H](Cc2cnc[nH]2)NC(=O)[C@@H](N)CSSC[C@@H](C(N)=O)NC1=O [Peptide P6] (H-CHVPGSYIC-NH2; disulfide 1-9) | – | – | cytotoxicity (H1299 cells): did not demonstrate cytotoxicity; IC50 (H1299 cells; 24 h continuous exposure): 27.5 ± 0.8 µM; IC50 (H1299 cells; 48 h continuous exposure): 32 µM; IC50 (H1299 cells; 72 h continuous exposure): 28.8 µM
C[C@@H]1NC(=O)[C@@H](N)CSSC[C@@H](C(N)=O)NC(=O)[C@H](CCCNC(=N)N)NC(=O)CNC(=O)[C@@H]2CCCN2C(=O)[C@H]([C@@H](C)O)NC(=O)[C@H](Cc2ccc(O)cc2)NC(=O)[C@H](CCC(N)=O)NC1=O [Peptide P11] (H-CAQYTPGRC-NH2; disulfide 1-9) | – | – | Cell line (peptide specificity per cell line; source of the cells from which the peptide was identified) [2]: DKMG
CC[C@@]1(O)C(=O)OCc2c1cc1n(c2=O)Cc2cc3ccccc3nc2-1 [CPT, (S)-(+)-camptothecin, reference compound] | – | – | IC50 (H1299 cells; Homo sapiens, NCI-H1299, 6 w 48 h (6 h pre-incubation, then 48 h drug-free medium)): 6.7 ± 1.8 µM; IC50 (DKMG cells; 6 w 48 h (6 h pre-incubation, then 48 h drug-free medium)): 8.5 ± 1 µM; IC50 (DKMG cells; 24 h continuous exposure): 25 µM
{FITC-GABA}-CLAVEVRPC-NH2 (disulfide 1-9; SMILES CC(C)C[C@@H]1NC(=O)[C@@H](NC(=O)CCCNC(=S)Nc2ccc3c(c2)C(=O)OC32c3ccc(O)cc3Oc3cc(O)ccc32)CSSC[C@@H](C(N)=O)NC(=O)[C@@H]2CCCN2C(=O)[C@H](CCCNC(=N)N)NC(=O)[C@H](C(C)C)NC(=O)[C@H](CCC(=O)O)NC(=O)[C@H](C(C)C)NC(=O)[C@H](C)NC1=O, also called FITC-labeled P4) [FITC-labeled cyclic peptide P4, c(CLAVEVRPC)] | binds | binds | –
{FITC-GABA}-CPNDSYHQC-NH2 (disulfide 1-9; SMILES NC(=O)CC[C@@H]1NC(=O)[C@H](Cc2c[nH]cn2)NC(=O)[C@H](Cc2ccc(O)cc2)NC(=O)[C@H](CO)NC(=O)[C@H](CC(=O)O)NC(=O)[C@H](CC(N)=O)NC(=O)[C@@H]2CCCN2C(=O)[C@@H](NC(=O)CCCNC(=S)Nc2ccc3c(c2)C(=O)OC32c3ccc(O)cc3Oc3cc(O)ccc32)CSSC[C@@H](C(N)=O)NC1=O, also called FITC-labeled P5) [FITC-labeled cyclic peptide P5, c(CPNDSYHQC)] | binds | binds | –
{FITC-GABA}-CVRWRFGRC-NH2 (disulfide 1-9; SMILES CC(C)[C@@H]1NC(=O)[C@@H](NC(=O)CCCNC(=S)Nc2ccc3c(c2)C(=O)OC32c3ccc(O)cc3Oc3cc(O)ccc32)CSSC[C@@H](C(N)=O)NC(=O)[C@H](CCCNC(=N)N)NC(=O)CNC(=O)[C@H](Cc2ccccc2)NC(=O)[C@H](CCCNC(=N)N)NC(=O)[C@H](Cc2c[nH]c3ccccc23)NC(=O)[C@H](CCCNC(=N)N)NC1=O, also called FITC-labeled P3) [FITC-labeled cyclic peptide P3, c(CVRWRFGRC)] | binds | binds | –
{FITC-GABA}-CAQYTPGRC-NH2 (disulfide 1-9; SMILES C[C@@H]1NC(=O)[C@@H](NC(=O)CCCNC(=S)Nc2ccc3c(c2)C(=O)OC32c3ccc(O)cc3Oc3cc(O)ccc32)CSSC[C@@H](C(N)=O)NC(=O)[C@H](CCCNC(=N)N)NC(=O)CNC(=O)[C@@H]2CCCN2C(=O)[C@H]([C@@H](C)O)NC(=O)[C@H](Cc2ccc(O)cc2)NC(=O)[C@H](CCC(N)=O)NC1=O, also called FITC-labeled P11) [FITC-labeled cyclic peptide P11, c(CAQYTPGRC)] | binds | binds | –
{FITC-GABA}-CVNAMQSYC-NH2 (disulfide 1-9; SMILES CSCC[C@@H]1NC(=O)[C@H](C)NC(=O)[C@H](CC(N)=O)NC(=O)[C@H](C(C)C)NC(=O)[C@@H](NC(=O)CCCNC(=S)Nc2ccc3c(c2)C(=O)OC32c3ccc(O)cc3Oc3cc(O)ccc32)CSSC[C@@H](C(N)=O)NC(=O)[C@H](Cc2ccc(O)cc2)NC(=O)[C@H](CO)NC(=O)[C@H](CCC(N)=O)NC1=O, also called FITC-P9; FITC-labeled P9) [FITC-labeled cyclic peptide P9, c(CVNAMQSYC)] | binds | binds | –
{FITC-GABA}-CSALWASHC-NH2 (disulfide 1-9; SMILES CC(C)C[C@@H]1NC(=O)[C@H](C)NC(=O)[C@H](CO)NC(=O)[C@@H](NC(=O)CCCNC(=S)Nc2ccc3c(c2)C(=O)OC32c3ccc(O)cc3Oc3cc(O)ccc32)CSSC[C@@H](C(N)=O)NC(=O)[C@H](Cc2c[nH]cn2)NC(=O)[C@H](CO)NC(=O)[C@H](C)NC(=O)[C@H](Cc2c[nH]c3ccccc23)NC1=O, also called FITC-labeled P8) [FITC-labeled cyclic peptide P8, c(CSALWASHC)] | binds | binds | –
{FITC-GABA}-CSAETVESC-NH2 (disulfide 1-9; SMILES CC(C)[C@@H]1NC(=O)[C@H]([C@@H](C)O)NC(=O)[C@H](CCC(=O)O)NC(=O)[C@H](C)NC(=O)[C@H](CO)NC(=O)[C@@H](NC(=O)CCCNC(=S)Nc2ccc3c(c2)C(=O)OC32c3ccc(O)cc3Oc3cc(O)ccc32)CSSC[C@@H](C(N)=O)NC(=O)[C@H](CO)NC(=O)[C@H](CCC(=O)O)NC1=O, also called FITC-labeled P2) [FITC-labeled cyclic peptide P2, c(CSAETVESC)] | binds | binds | –
